Assay results: patent publication US20220041711A1 (NGM BIOPHARMACEUTICALS, published 2022)

T1: MSR1 expressed on transfected 293T cells (UniProt P21757 1-451, limits assumed)
T1 construct: whole, on cells
T1 sequence (looked up): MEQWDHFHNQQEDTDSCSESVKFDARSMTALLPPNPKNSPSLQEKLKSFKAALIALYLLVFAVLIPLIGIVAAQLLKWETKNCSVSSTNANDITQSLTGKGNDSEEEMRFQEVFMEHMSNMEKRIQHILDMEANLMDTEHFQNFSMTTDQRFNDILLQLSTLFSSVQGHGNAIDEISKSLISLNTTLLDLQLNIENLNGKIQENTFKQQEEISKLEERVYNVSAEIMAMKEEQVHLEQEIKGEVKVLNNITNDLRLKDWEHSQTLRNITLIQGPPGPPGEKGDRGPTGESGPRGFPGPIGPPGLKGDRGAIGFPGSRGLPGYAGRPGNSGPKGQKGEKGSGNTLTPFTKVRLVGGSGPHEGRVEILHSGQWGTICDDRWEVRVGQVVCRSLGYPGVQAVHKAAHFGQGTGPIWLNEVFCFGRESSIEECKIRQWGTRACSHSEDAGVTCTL

T2: collagen 17A1 (COL17A1) expressed on 721.221 cells (UniProt Q9UMD9 1-1497, limits assumed)
T2 construct: whole, on cells
T2 sequence (looked up): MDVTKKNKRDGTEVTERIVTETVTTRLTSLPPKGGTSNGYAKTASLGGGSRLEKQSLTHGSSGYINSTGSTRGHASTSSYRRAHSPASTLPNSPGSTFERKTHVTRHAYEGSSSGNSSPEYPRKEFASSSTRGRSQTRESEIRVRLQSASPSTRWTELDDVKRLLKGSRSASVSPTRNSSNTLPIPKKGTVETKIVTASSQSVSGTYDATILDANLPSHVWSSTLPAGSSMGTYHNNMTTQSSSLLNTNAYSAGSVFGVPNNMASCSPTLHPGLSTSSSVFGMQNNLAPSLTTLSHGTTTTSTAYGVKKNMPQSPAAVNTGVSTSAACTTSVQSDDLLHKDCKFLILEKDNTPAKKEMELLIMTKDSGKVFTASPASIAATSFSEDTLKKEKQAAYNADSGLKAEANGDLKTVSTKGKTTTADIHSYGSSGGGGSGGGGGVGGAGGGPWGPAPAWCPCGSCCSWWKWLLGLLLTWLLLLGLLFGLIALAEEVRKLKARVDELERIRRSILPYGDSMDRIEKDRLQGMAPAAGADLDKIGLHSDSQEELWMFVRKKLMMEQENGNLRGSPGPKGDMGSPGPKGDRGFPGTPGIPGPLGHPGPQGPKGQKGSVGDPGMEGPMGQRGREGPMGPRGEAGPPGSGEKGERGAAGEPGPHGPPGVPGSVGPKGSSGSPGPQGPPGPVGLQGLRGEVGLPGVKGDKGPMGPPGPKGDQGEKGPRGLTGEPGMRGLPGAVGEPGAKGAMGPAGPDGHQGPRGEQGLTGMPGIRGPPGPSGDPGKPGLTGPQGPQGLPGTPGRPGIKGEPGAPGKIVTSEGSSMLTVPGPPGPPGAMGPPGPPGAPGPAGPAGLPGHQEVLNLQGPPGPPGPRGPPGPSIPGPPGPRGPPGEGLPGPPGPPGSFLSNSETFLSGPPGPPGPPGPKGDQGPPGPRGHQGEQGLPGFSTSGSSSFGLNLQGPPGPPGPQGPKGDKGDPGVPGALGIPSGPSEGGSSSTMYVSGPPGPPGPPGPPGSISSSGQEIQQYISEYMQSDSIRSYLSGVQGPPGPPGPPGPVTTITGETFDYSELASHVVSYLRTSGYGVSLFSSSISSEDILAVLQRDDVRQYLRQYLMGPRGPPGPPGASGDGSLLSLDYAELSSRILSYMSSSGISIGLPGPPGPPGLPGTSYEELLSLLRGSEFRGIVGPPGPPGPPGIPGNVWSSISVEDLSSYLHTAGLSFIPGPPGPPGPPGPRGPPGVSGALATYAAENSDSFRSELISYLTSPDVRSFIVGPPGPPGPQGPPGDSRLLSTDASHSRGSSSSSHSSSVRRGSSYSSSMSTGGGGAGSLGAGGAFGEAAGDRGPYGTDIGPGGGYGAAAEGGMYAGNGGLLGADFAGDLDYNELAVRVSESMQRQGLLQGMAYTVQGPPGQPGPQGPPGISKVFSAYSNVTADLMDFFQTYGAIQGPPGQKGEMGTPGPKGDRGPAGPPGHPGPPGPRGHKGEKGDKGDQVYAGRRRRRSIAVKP

T3: human MARCO (form in the assay not stated) (human, UniProt Q9UEW3 79-520, limits assumed)
T3 sequence: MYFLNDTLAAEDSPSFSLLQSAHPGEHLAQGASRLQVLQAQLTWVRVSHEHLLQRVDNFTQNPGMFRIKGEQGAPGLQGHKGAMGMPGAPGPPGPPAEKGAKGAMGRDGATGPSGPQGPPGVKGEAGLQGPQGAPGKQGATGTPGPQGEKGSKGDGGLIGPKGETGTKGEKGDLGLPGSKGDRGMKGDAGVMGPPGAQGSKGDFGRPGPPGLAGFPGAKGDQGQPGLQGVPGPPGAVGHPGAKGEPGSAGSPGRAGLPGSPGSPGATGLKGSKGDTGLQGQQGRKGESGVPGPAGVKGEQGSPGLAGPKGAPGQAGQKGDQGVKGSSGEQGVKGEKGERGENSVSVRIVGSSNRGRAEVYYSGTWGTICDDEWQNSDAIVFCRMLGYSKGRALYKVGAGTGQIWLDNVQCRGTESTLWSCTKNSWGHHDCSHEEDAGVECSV

T4: human MARCO expressed on cells (721.221-MARCO, 293T-MARCO) (human, UniProt Q9UEW3 1-520)
T4 construct: also called 721.221 cells expressing MARCO
T4 sequence: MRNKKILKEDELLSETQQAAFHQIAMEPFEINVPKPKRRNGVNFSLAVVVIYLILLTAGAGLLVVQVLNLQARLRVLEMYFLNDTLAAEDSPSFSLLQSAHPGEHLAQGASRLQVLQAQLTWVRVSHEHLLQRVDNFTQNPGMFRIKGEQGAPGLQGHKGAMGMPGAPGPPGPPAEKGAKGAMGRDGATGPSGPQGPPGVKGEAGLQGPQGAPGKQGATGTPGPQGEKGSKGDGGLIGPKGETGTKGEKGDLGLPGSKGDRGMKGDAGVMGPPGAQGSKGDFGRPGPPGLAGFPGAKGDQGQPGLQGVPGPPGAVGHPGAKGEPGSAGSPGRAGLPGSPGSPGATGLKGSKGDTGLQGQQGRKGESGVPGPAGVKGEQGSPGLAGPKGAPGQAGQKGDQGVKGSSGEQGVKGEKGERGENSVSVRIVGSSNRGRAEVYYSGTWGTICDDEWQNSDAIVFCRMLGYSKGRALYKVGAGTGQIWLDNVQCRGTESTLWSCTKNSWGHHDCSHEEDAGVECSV


Assays:
[1] = target: T1, MSR1 expressed on transfected 293T cells; assay: flow cytometry on 293T-MSR1 cells, Alexa647 anti-mouse IgG secondary
Description: (§1) An Alexa647-labeled anti-mouse IgG secondary antibody was added to the plates. Positive binding was measured by flow cytometry and analyzed using FlowJo software.
(§2) Binding was detected using an Alexa647-labeled anti-mouse IgG secondary antibody (Jackson ImmunoResearch). Cells were analyzed by flow cytometry on a LSRFortessa™ instrument (BD Biosciences) and using FlowJo software. Live cells were gated before analysis. The percentage of live cells bound by the antibodies in each subset (% mAb binding+) and the mean fluorescence intensity (MFI) were calculated. Non-specific background staining was determined with secondary antibody alone.

[2] = target: T5, SCARA5 expressed on transfected 293T cells (UniProt Q6ZMJ2 1-495, limits assumed); assay: flow cytometry on 293T-SCARA5 cells, Alexa647 anti-mouse IgG secondary
T5 construct: whole, on cells
Description: as §1, §2

[3] = target: T2, collagen 17A1 (COL17A1) expressed on …; assay: IHC on 721.221 stable cell lines; '-' = no detectable signal
Description: 721.221 cells were assayed using the Leica BOND RX fully automated research stainer platform. […] Samples were pre-treated with Diva Decloaker and blocked with intelliPATH FLX™ peroxidase blocking solution.

[4] = target: T3, human MARCO (form in the assay not …); assay: ELISA, FACS and IHC screening
[5] = target: T6, CD163L expressed on transfected 293T cells (UniProt Q9NR16 41-1453); assay: flow cytometry on 293T-CD163L cells, Alexa647 anti-mouse IgG secondary
T6 construct: whole, on cells
Description: as §1, §2

[6] = target: T7, COL13A1 expressed on transfected 293T cells (UniProt Q5TAT6 1-717, limits assumed); assay: IHC on 293T-transfected cell pellets; '-' = no detectable signal
T7 construct: whole, on cells
Description: A biopsy punch was used to make cell pellet tissue microarrays, from which sections were cut and slides were prepared. […] Samples were pre-treated with Diva Decloake and blocked with intelliPATH FLX™ peroxidase blocking solution and background Punisher (Biocare Medical). […] Tissues were washed and bluing reagent (Ventana) was added.

[7] = target: T4, human MARCO expressed on cells …; assay: flow cytometry, antibody at 2.5 µg/mL, Alexa647 anti-mouse IgG secondary
Description: as §1, §2

T7 sequence (Q5TAT6 whole entry): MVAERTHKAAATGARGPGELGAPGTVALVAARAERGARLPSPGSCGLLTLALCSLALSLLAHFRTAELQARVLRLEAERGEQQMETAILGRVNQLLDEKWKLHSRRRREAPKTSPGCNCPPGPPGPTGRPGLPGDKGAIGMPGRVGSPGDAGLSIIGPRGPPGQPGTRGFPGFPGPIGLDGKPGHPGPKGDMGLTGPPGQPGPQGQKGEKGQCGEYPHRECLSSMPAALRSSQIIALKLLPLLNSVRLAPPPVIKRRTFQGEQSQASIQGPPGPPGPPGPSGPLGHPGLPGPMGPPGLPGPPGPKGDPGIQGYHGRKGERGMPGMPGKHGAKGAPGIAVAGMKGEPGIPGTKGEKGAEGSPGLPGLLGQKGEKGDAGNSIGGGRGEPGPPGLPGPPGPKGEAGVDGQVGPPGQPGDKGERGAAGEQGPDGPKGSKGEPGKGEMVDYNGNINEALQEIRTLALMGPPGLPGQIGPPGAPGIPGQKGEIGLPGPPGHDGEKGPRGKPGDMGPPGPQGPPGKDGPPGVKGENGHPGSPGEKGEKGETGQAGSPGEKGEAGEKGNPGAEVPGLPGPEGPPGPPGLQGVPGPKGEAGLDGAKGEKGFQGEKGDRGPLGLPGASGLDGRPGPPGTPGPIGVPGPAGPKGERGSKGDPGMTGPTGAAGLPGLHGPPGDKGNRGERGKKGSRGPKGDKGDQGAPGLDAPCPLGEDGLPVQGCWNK
T6 sequence (Q9NR16 41-1453): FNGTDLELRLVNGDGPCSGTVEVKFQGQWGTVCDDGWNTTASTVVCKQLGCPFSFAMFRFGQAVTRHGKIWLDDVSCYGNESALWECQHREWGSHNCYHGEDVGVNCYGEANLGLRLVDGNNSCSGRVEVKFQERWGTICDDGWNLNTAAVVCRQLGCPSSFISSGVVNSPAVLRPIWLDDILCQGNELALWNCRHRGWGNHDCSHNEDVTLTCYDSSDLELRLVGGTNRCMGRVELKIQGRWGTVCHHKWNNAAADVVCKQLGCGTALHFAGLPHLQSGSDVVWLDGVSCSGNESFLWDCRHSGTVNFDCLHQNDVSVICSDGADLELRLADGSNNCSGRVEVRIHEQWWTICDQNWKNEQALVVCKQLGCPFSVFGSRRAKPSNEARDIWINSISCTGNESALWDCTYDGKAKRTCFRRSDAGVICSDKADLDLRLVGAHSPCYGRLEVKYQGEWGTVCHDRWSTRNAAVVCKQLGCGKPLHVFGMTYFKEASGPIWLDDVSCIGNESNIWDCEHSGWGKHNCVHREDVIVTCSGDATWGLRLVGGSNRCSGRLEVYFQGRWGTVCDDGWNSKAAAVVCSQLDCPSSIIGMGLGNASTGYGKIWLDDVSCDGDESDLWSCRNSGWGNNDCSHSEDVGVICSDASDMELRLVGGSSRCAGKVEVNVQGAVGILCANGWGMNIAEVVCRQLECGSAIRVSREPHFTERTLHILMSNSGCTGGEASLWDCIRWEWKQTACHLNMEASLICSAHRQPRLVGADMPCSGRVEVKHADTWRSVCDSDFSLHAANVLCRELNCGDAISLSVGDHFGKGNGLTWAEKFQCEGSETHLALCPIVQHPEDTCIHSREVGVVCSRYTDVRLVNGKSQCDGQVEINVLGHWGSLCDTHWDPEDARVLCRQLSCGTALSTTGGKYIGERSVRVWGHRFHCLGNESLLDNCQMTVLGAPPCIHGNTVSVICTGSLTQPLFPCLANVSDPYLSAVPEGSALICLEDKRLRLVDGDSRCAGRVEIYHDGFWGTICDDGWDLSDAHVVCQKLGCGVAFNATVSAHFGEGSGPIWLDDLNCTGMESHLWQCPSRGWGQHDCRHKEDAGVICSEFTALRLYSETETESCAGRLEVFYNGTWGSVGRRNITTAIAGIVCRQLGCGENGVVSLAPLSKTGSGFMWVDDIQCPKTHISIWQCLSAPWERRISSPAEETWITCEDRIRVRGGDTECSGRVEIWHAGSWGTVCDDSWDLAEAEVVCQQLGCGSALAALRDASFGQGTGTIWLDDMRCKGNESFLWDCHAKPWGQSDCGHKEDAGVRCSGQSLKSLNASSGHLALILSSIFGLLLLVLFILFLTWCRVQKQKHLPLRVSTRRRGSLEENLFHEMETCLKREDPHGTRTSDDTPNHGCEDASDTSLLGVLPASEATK
T5 sequence (Q6ZMJ2 whole entry): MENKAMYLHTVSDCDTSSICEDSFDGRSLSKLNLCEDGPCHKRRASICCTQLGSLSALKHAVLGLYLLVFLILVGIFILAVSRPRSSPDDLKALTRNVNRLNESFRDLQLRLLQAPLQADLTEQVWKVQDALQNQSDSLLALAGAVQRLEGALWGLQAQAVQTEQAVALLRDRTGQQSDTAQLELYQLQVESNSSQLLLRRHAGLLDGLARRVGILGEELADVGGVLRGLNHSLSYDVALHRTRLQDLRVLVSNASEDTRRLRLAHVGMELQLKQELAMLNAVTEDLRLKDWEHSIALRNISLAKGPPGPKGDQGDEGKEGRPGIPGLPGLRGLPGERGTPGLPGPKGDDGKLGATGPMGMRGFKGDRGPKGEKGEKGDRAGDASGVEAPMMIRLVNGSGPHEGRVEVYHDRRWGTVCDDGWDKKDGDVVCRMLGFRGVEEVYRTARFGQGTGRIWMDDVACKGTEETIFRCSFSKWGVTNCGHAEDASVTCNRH

Row | binding result [1] | binding result [2] | binding result [3] | binding result [4] | binding result [5] | binding result [6] | binding result [7] | Binder
1 | no binding (tested: 2.5 µg/mL) | no binding (tested: 2.5 µg/mL) | no binding | binds | no binding (tested: 2.5 µg/mL) | no binding | binds | anti-MARCO antibody 15A3 (antibody, mouse IgG2a, kappa, detected with anti-mouse IgG; copies: 2 + 2) heavy: EIQLQQSGPELVKPGASVKVSCKASGYSFTDYNMYWVKQSHGKSLEWIGYIDPYNGGTSYNQKFKGKATLTVDKSSSTAFMHLNSLTSEDSAVYYCARLRSPYDYDRGDYVMDYWGQGTSVTVSSAKTTAPSVYPLAPVCGDTTGSSVTLGCLVKGYFPEPVTLTWNSGSLSSGVHTFPAVLQSDLYTLSSSVTVTSSTWPSQSITCNVAHPASSTKVDKKIEPRGPTIKPCPPCKCPAPNAAGGPSVFIFPPKIKDVLMISLSPIVTCVVVDVSEDDPDVQISWFVNNVEVHTAQTQTHREDYNSTLRVVSALPIQHQDWMSGKEFKCKVNNKDLGAPIERTISKPKGSVRAPQVYVLPPPEEEMTKKQVTLTCMVTDFMPEDIYVEWTNNGKTELNYKNTEPVLDSDGSYFMYSKLRVEKKNWVERNSYSCSVVHEGLHNHHTTKSFSRTPGK light: DIVLTQSPASLAVSLGQRATISCRASKSVSTSGYTYMHWYQQKPGQPPKLLIYLASNLESGVPARFSGSGSGTDFTLNIHPVEEEDAATYYCQHSRELPLTFGAGTKLELKRADAAPTVSIFPPSSEQLTSGGASVVCFLNNFYPKDINVKWKIDGSERQNGVLNSWTDQDSKDSTYSMSSTLTLTKDEYERHNSYTCEATHKTSTSPIVKSFNRNEC
2 | no binding (tested: 2.5 µg/mL) | no binding (tested: 2.5 µg/mL) | no binding | binds | no binding (tested: 2.5 µg/mL) | no binding | binds | anti-MARCO antibody 10G4 (antibody, mouse IgG2a, kappa, detected with anti-mouse IgG; copies: 2 + 2) heavy: QVQLKESGPGLVAPSQSLSITCTVSGFSLSSYPISWVRQPPGKGLEWLGIIWTGGGTNYNSALKSRLSISKDNSKSQVFLKMNSLQTDDTARYYCASQNWDVNSALDYWGQGTSVTVSSAKTTAPSVYPLAPVCGDTTGSSVTLGCLVKGYFPEPVTLTWNSGSLSSGVHTFPAVLQSDLYTLSSSVTVTSSTWPSQSITCNVAHPASSTKVDKKIEPRGPTIKPCPPCKCPAPNAAGGPSVFIFPPKIKDVLMISLSPIVTCVVVDVSEDDPDVQISWFVNNVEVHTAQTQTHREDYNSTLRVVSALPIQHQDWMSGKEFKCKVNNKDLGAPIERTISKPKGSVRAPQVYVLPPPEEEMTKKQVTLTCMVTDFMPEDIYVEWTNNGKTELNYKNTEPVLDSDGSYFMYSKLRVEKKNWVERNSYSCSVVHEGLHNHHTTKSFSRTPGK light: DIQMTQSPASLSVSVGETVTITCRASENIYSNLAWYQQKQGKSPQLLVYTATNLADGVPSRFSGSGSGTQYSLRINRLQSEDFGNYYCQHFWNAPWTFGGGTKLEIKRADAAPTVSIFPPSSEQLTSGGASVVCFLNNFYPKDINVKWKIDGSERQNGVLNSWTDQDSKDSTYSMSSTLTLTKDEYERHNSYTCEATHKTSTSPIVKSFNRNEC
3 | no binding (tested: 2.5 µg/mL) | no binding (tested: 2.5 µg/mL) | no binding | binds | no binding (tested: 2.5 µg/mL) | no binding | binds | anti-MARCO antibody 6D8 (antibody, mouse IgG2a, kappa, detected with anti-mouse IgG; copies: 2 + 2) heavy: QVQLKESGPGLVAPSQSLSIACTVSGFSLTNYAISWVRQPPGKGLEWLGVIWTGGGTNYNSTLKSRLSISKDNSKSQVFLKMNSLQTDDTARYNCARNSGDWYFDVWGPGTTVTVSSAKTTAPSVYPLAPVCGDTTGSSVTLGCLVKGYFPEPVTLTWNSGSLSSGVHTFPAVLQSDLYTLSSSVTVTSSTWPSQSITCNVAHPASSTKVDKKIEPRGPTIKPCPPCKCPAPNAAGGPSVFIFPPKIKDVLMISLSPIVTCVVVDVSEDDPDVQISWFVNNVEVHTAQTQTHREDYNSTLRVVSALPIQHQDWMSGKEFKCKVNNKDLGAPIERTISKPKGSVRAPQVYVLPPPEEEMTKKQVTLTCMVTDFMPEDIYVEWTNNGKTELNYKNTEPVLDSDGSYFMYSKLRVEKKNWVERNSYSCSVVHEGLHNHHTTKSFSRTPGK light: DIVMSQSPSSLAVSVGEKVTMSCKSSQSLLYSSNQKNYLAWYQQKPGQSPHLLIYWASTRESGVPDRFIGSGSGTDFTLTISSVKAEDLAVYYCQQYYDYPPTFGSGTKLEIKRADAAPTVSIFPPSSEQLTSGGASVVCFLNNFYPKDINVKWKIDGSERQNGVLNSWTDQDSKDSTYSMSSTLTLTKDEYERHNSYTCEATHKTSTSPIVKSFNRNEC
